Results published in patent US8093030B2, “Thermostable viral polymerases and methods of use” (Lucigen Corporation, priority 2005, dated 2012).
Positions count from the first letter of the chain named. Numbers in names are those of the source.

What was measured:
[1] = system: M13 primer on M13mp18 ssDNA; experiment: Primer extension detected by Pico Green with chain terminating analogs; assay type: biochemical; conditions: control without chain terminating analogs, 2 mM each dNTP
Description: In a second experiment, incorporation was tested by detection of DNA synthesis using a double-strand specific fluorescent dye, Pico Green (Invitrogen). […] In separate reactions, a mix of ddGTP, ddATP ddTTP, ddCTP (2 mM each) and a mix of the four acyNTPs (2 mM each) were added to extension reactions followed by DNA polymerase. As a control, identical reactions without added chain terminating analogs were also performed. Polymerase 3173 mutant D49A was tested and, for comparison, T7 DNA polymerase, which incorporates ddNTPs with very low discrimination, and Klenow fragment of E. coli polymerase I and VENTR DNA polymerase (New England Biolabs), both of which have a higher discrimination, were also tested. Extension of the primer was detected by fluorescence of Pico Green dye.

Poly rA: Oligo dT = experiment: Reverse transcriptase activity by incorporation of radiolabeled dTTP; assay type: biochemical
Description: Reverse transcriptase activity was detected by incorporation of radiolabeled deoxyribonucleotide triphosphates into polydeoxyribonucleotides using a ribonucleic acid template. […] Incorporation of dTTP was detected as radioactive counts adhering to DE81 filter paper. Similar reverse transcription reactions were measured by incorporation of labeled dTTP on a poly rA template using 1 unit of Tth (Promega) and 1 unit MMLV reverse transcriptase (Novagen) according to the respective manufacturers' recommended conditions.

[2] = system: primed single stranded M13 DNA; experiment: Binding constant (Km) for primed template; assay type: biochemical; conditions: nucleotides in excess, 70° C.
Description: The binding constant (reported as Km, the concentration at which the reaction rate is 50% maximal) for nucleotides by polymerase 3173 was determined using activated calf thymus DNA as a template. Reactions were maintained under pseudo-first order conditions using a molar excess of all components, with the exceptions of the enzyme and the nucleotides. Reactions (50 μl) were incubated at 70° C. and samples (5 μl each) were removed at varying time points and spotted on DE81 paper. Activity was determined as described in Example 6. The binding constant for primed template was similarly determined except that nucleotides were supplied in excess and the concentration of primed template (primed single stranded M13 DNA) was varied.

[3] = system: radiolabeled polynucleotide; experiment: Exonuclease assay (radioactive nucleotide release); assay type: biochemical
Description: For example, polynucleotides can be synthesized such that a detectable proportion of the nucleotides are radioactively labeled. These polynucleotides are incubated in an appropriate buffer in the presence of the polypeptide to be tested. After incubation, the polynucleotide is precipitated and exonuclease activity is detectable as radioactive counts due to free nucleotides in the supernatant.
The presence of a 3′-5′ exonuclease domain in the 3173 DNA polymerase was detected by reduction in molecular weight of a 5′ fluorescently labeled oligonucleotide. Upon incubation of the primer/template complex described in Example 5, under the same conditions, a portion of the primer product was reduced in apparent molecular weight. This reduction in size was detected by capillary electrophoresis using an ABI 310 Genetic Analyzer operated in GeneScan mode. The presence of an exonuclease domain was confirmed by sequence alignment and by incubation of the polymerase with a radiolabeled polynucleotide, followed by digestion and precipitation with trichloroacetic acid. Radioactivity due to free nucleotides in the supernatant was measured.
An exonuclease assay was performed to confirm that exonuclease activity was eliminated in the mutants. […]
Exonuclease activity for polymerase 3173 was determined as described in Example 7.

lacIq gene = experiment: Fidelity assay, lacIq amplification with blue/white colony count; conditions: 25 PCR cycles, target size 349 for lacIq
Description: Fidelity was determined by a modification of the standard assay in which the lacIq gene is amplified by the DNA polymerase of interest and inserted into a plasmid containing genes encoding a functional lacZ alpha peptide and a selectable marker. Primers of SEQ ID NOS:28 and 29 were used to amplify a sequence containing both the lacIq and the KanR gene. […] Normally a white phenotype is seen for clone containing this construct when plated on X-Gal. Mutation of the lacIq results in a blue phenotype for the colonies when plated on X-Gal.
For high fidelity PCR amplification, five units of the wild-type (proofreading) DNA polymerase 3173 (SEQ ID NO: 6) was tested using the following mix (50 mM Tris HCl (pH 9.0 at 25° C.), 50 mM KCl, 10 mM (NH4)2SO4, 1.5 mM MgSO4, 1.5 mM MgCl2, 0.1% triton-X100, 250 mM ectoine and 0.2 mM each of dGTP, dATP, dTTP and dCTP. Opposing primers of SEQ ID 28 and 29 (1 μM each) amplified the expected 2 k kb product from template SEQ ID 30 (10 ng). After thermal cycling (94° C. for 1 minute, 25 cycles of (94° C. for 15 seconds, 60° C. for 15 seconds, 72° C. for 2.5 minutes) and 72° C. 7 minutes), reaction products were quantified to determine “fold amplification,” (see below) using agarose gel electrophoresis. Both primers contain Eco109I sites. The PCR product was digested with Eco109I and inserted into the Eco109I site of pUC19. 10 G cells transformed by the construct were plated on LB plates containing ampicillin (100 μg/ml), kanamycin (30 μg/ml) and X-Gal (50 μg/ml). Blue and white colony counts were used for the fidelity determinations.

[4] = system: single-stranded M13mp18 and double stranded pUC19 plasmid DNA; experiment: High temperature isothermal RCA amplification with random decamer primers; assay type: biochemical; conditions: both templates
Description: Five units of polymerase 3173 was used to amplify one nanogram each of single-stranded M13mp18 and double stranded pUC19 plasmid DNA. […] Either 0.5 μM or 5 μM of random decamer primers were added to each template. Reactions were incubated at 95° C. prior to addition of enzyme, then 16 hours at 55° C. with enzyme. One fiftieth of each reaction was resolved on a 1% agarose gel.
Results are shown in FIG. 5, Panel A. Lanes are as follows: five units of 3173 wild type DNA polymerase used to amplify M13mp18 single-stranded DNA template (lanes 2 and 3) and pUC19 double-stranded DNA (lanes 4 and 5) or no template (lane 6). Random ten nucleotide oligomer primers are added in the concentrations of 5 μM (lanes 2, 4 and 6) or 0.5 μM (lanes 3 and 5).
To determine if the amplification was specific for the template DNA, one μl of the amplification product of the positive pUC19 reaction was tested in a PCR reaction using primers specific for a 1 kb sequence in the bla gene of the original plasmid template. As a negative control, a reaction lacking deoxynucleotides was analyzed using PCR. As a positive control, the 1 kb sequence was amplified directly from 1 ng of pUC19.

[5] = system: plasmid and random primers; experiment: Strand displacement activity in rolling circle amplification (RCA) with random primers; assay type: biochemical
Description: As used herein, “strand displacement activity” refers to the ability of a polymerase to displace downstream DNA encountered during synthesis. Protocols such as, e.g., strand displacement amplification (SDA) may exploit this activity. Strand displacement activity may be determined using primer-initiated synthesis. A polymerase of the invention is incubated in the presence of a plasmid and random primers. A polymerase of the invention may extend the primer the complete circumference of the plasmid at which point the 5′ end of the primer is encountered. If the polymerase is capable of strand displacement activity, the nascent strand of DNA is displaced and the polymerase continues DNA synthesis. The presence of strand displacement activity results in a product having a molecular weight greater than the original template. The higher molecular weight product can be easily detected by agarose gel electrophoresis.
Strand displacement activity was determined using primer-initiated synthesis in a rolling circle amplification (RCA) protocol. Briefly, polymerase 3173 was incubated in the presence of a plasmid and random primers. Polymerase 3173 extended the primer the complete circumference of the plasmid at which point the 5′ end of the primer was encountered.

[6] = system: plasmid DNA nicked with N.Bst NB1; experiment: Isothermal RCA in the absence of added primers (nick-initiated synthesis)
Description: Suitably, nick-initiated polymerase activity can be detected, e.g., on an agarose gel, as an increase in the amount of DNA product due to synthesis in the presence of a nicking enzyme as compared to minimal or no product synthesized when nicking enzyme is absent from the reaction.
Reactions containing 10 ng of plasmid DNA, 20 mM Tris-HCl, 10 mM (NH4)2SO4, 10 mM KCl, 2 mM MgSO4, 0.1% Triton X-100, pH 8.8 at 25° C., and 200 μM each of dGTP, dATP, dTTP and dCTP were incubated for 2 hours at 56° C. with or without 10 units of nick-generating enzyme N.Bst NB1 (NEB) and either no DNA polymerase, 200 units of 3173 wt or 400 units of 3173 (D49A) mutant enzyme. Parallel reactions were performed in the absence of nicking enzyme, polymerase or both. Amplification products were analyzed by agarose gel electrophoresis.

[7] = system: ROX-labeled primer annealed to single-stranded M13mp18 DNA; experiment: Fluorescent (ROX) primer extension in presence of ddNTPs; assay type: biochemical
Description: In separate reactions, ddGTP, ddATP, ddTTP, and ddCTP were added to the above mix in concentrations of 50, 500 and 5000 μM each. Five units of polymerase 3173 mutant D49A were added and the reactions were incubated for 30 minutes at 70° C. Extension of the primer was detected by the ABI 310 Genetic Analyzer in Gene Scan mode.

activated ct DNA = experiment: Inhibition of radioactive nucleotide incorporation by chain terminating analogs; assay type: biochemical; conditions: control, 40 μM each dNTP, 70° C. 30 min
Description: Based on alignment with family A DNA polymerases, amino acid 418 of the polymerase 3173 mutant D49A was mutated from phenylalanine to tyrosine. The mutant protein was expressed and the cells lysed and heat-treated at 70° C. for 10 minutes to inactivate host proteins. The polymerase 3173 mutant D49A/F418Y was tested for inhibition of radioactive nucleotide incorporation using chain terminating nucleotide analogs in the same mix as unlabeled deoxynucleotides. […] In separate reactions both the D49A/F418Y mutant and purified polymerase 3173 mutant D49A were tested for inhibition by 4 mM each of ddNTPs and 4 mM each acycloNTPs. A control with no chain terminators was included. 50 μl reactions were incubated at 70° C. for 30 min. 15 μl of each reaction was spotted on DE81 paper, washed and counted, and units of activity were determined as described in Example 6. The degree of inhibition due to incorporation of dideoxy- and acyclo-nucleotides is tabulated below.

B1: T7: T7 DNA polymerase, which incorporates ddNTPs with very low discrimination (protein, UniProt P00581 1-704, looked up)
DNA-directed DNA polymerase: MIVSDIEANALLESVTKFHCGVIYDYSTAEYVSYRPSDFGAYLDALEAEVARGGLIVFHNGHKYDVPALTKLAKLQLNREFHLPRENCIDTLVLSRLIHSNLKDTDMGLLRSGKLPGKRFGSHALEAWGYRLGEMKGEYKDDFKRMLEEQGEEYVDGMEWWNFNEEMMDYNVQDVVVTKALLEKLLSDKHYFPPEIDFTDVGYTTFWSESLEAVDIEHRAAWLLAKQERNGFPFDTKAIEELYVELAARRSELLRKLTETFGSWYQPKGGTEMFCHPRTGKPLPKYPRIKTPKVGGIFKKPKNKAQREGREPCELDTREYVAGAPYTPVEHVVFNPSSRDHIQKKLQEAGWVPTKYTDKGAPVVDDEVLEGVRVDDPEKQAAIDLIKEYLMIQKRIGQSAEGDKAWLRYVAEDGKIHGSVNPNGAVTGRATHAFPNLAQIPGVRSPYGEQCRAAFGAEHHLDGITGKPWVQAGIDASGLELRCLAHFMARFDNGEYAHEILNGDIHTKNQIAAELPTRDNAKTFIYGFLYGAGDEKIGQIVGAGKERGKELKKKFLENTPAIAALRESIQQTLVESSQWVAGEQQVKWKRRWIKGLDGRKVHVRSPHAALNTLLQSAGALICKLWIIKTEEMLVEKGLKHGWDGDFAYMAWVHDEIQVGCRTEEIAQVVIETAQEAMRWVGDHWNFRCLLDTEGKMGPNWAICH
- Primer extension, dNTPs [1]: 100.0%

B2: polymerase 3173: thermostable viral DNA polymerase with the amino acid sequence of SEQ ID NO:6 (protein)
chain: MGEDGLSLPKMMNTPKPILKPQPKALVEPVLCDSIDEIPAKYNEPVYFDLETDEDRPVLASIYQPHFERKVYCLNLLKEKVARFKDWLLKFSEIRGWGLDFDLRVLGYTYEQLRNKKIVDVQLAIKVQHYERFKQGGTKGEGFRLDDVARDLLGIEYPMNKTKIRETFKNNMFHSFSNEQLLYASLDAYIPHLLYEQLTSSTLNSLVYQLDQQAQKVVIETSQHGMPVKLKALEEEIHRLTQLRSEMQKQIPFNYNSPKQTAKFFGVNSSSKDVLMDLALQGNEMAKKVLEARQIEKSLAFAKDLYDIAKRSGGRIYGNFFTTTAPSGRMSCSDINLQQIPRRLRSFIGFDTEDKKLITADFPQIELRLAGVIWNEPKFIEAFRQGIDLHKLTASILFDKNIEEVSKEERQIGKSANFGLIYGIAPKGFAEYCIANGINMTEEQAYEISQKVEEVLHKDCRQHQVAYERFKYNEYVDNETWLNRTYRAWKPQDLLNYQIQGSGAELFKKAIVLLKETKPDLKIVNLVHDEIVVEADSKEAQDLAKLIKEKMEEAWDWCLEKAEEFGNRVAKIKLEVEEPHVGNTWEKP
modifications: Uncultured newly isolated virus
- reverse transcription in presence of manganese versus magnesium (Poly rA: Oligo dT): equivalent
- Incorporation of dTTP (Poly rA: Oligo dT; 1 U enzyme, 60° C. 20 minutes (commercial enzymes per manufacturers' conditions)): 1.037 nmol
- Km [2]: 5.3 nM
- 3′-5′ exonuclease activity [3]: strong
- nuclease activity ([3]; assay detects levels below 0.1% of wild-type): potent
- Fidelity (lacIq gene): 6.98 × 10^4
- Fidelity (lacIq gene; listed as DNA polymerase 3173): 6.98E+04
- estimated overall yield ([4]; 5 units, 1 ng template, 16 hours at 55° C.): approximately 50 μg
- amplification [4]: up to 50,000 fold
- Strand displacement ([5]; listed as 3173): strong
- Strand displacement ([5]; listed as Polymerase 3173): displaced the nascent strand of DNA and continued DNA synthesis
- Thermostability (T1/2 at 95°): 10 min
- Extension from nicks [6]: strong
- yields of DNA product ([6]; nicking enzyme present, 2 hours at 56° C., 200 units 3173 wt or 400 units D49A): multi-microgram yields

B3: polymerase 3173 mutant D49A/F418Y: double mutant of polymerase 3173 with both a D49A and a F418Y mutation, SEQ ID NO:27 (protein)
chain: B2 chain with D49A, F418Y
- primer extension at 0.2× ratio of ddGTP:dGTP ([7]; 0.2× ddGTP:dGTP): nearly complete inhibition of primer extension
- discrimination against chain terminating nucleotides ([7]; conclusion drawn from the extension/incorporation data): nearly zero
- Activity, no terminators (activated ct DNA): 100.0%
